From paper PMC5832863, “Solution structure and dynamics of anti-CRISPR AcrIIA4, the Cas9 inhibitor” (Scientific Reports, 2018)

What was measured:
Conditions in all cases: both partners purified
[1] = molecular target: T1, Streptococcus pyogenes Cas9 (a.a. 1-1368) (S. pyogenes, UniProt Q99ZW2 1-1368); assay: ITC; sgRNA-bound SpyCas9 titrated with AcrIIA4; 25 °C; one-site binding model
T1 construct: Cas9 RNA-guided endonuclease of Streptococcus pyogenes, residues 1-1368, synthetic gene in pET28b; the two states are told apart by the assay; also called SpyCas9; apo-SpyCas9; source: E. coli BL21(DE3), purified (HisTrap HP, HiTrap SP, Superdex200)
T1 sequence (Q99ZW2 whole entry, the tested form may be a part): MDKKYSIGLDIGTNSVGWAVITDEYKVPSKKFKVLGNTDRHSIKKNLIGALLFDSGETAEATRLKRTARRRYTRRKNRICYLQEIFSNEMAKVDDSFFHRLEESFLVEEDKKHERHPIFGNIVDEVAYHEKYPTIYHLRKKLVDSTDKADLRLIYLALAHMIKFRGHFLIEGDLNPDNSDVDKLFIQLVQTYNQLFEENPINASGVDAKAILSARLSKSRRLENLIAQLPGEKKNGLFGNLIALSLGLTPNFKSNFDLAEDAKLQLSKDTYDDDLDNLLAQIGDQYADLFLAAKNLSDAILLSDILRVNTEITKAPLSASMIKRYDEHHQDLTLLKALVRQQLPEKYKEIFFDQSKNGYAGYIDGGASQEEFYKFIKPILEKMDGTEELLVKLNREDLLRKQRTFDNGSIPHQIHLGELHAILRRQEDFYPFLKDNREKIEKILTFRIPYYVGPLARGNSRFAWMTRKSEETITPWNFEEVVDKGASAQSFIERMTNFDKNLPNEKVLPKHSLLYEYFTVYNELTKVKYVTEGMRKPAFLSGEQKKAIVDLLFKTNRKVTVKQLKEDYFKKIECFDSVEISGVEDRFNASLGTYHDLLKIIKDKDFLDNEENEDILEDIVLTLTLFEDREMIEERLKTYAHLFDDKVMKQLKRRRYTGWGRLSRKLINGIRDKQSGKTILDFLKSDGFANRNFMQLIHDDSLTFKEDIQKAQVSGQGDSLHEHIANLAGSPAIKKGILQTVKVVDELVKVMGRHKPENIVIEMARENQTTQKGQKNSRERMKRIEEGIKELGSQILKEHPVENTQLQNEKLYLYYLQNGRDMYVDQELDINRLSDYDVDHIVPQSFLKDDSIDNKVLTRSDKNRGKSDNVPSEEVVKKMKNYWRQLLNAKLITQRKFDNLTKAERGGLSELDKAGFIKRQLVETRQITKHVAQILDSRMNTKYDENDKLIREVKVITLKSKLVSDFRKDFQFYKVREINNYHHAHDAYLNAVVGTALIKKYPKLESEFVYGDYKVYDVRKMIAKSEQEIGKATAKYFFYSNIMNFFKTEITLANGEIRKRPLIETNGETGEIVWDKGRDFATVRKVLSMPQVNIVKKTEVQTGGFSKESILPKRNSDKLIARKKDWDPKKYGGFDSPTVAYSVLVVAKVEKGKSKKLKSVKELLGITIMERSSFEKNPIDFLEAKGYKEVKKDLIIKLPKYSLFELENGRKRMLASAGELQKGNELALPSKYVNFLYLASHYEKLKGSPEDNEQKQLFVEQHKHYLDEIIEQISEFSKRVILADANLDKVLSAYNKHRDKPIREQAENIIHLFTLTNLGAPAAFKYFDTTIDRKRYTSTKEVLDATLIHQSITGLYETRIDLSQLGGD

[2] = molecular target: T1, Streptococcus pyogenes Cas9 (a.a. …); assay: ITC; apo-SpyCas9 (no sgRNA): 50 uM SpyCas9 in the cell titrated with 500 uM AcrIIA4; 25 °C; 20 mM sodium phosphate, pH 7.4, 100 mM NaCl, 5 mM BME, 0.01% NaN3; one-site binding model
[3] = molecular target: T1, Streptococcus pyogenes Cas9 (a.a. …); assay: as above; remark: listed apart in the source

B1: Listeria monocytogenes anti-CRISPR protein AcrIIA4 (a.a. 1-87) (natural protein, Listeria monocytogenes (prophage), UniProt A0A247D711 1-87, looked up)
chain: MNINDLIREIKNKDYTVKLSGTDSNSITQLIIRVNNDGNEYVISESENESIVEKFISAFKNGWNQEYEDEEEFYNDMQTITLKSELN
notes: AcrIIA4, anti-CRISPR protein encoded by Listeria monocytogenes prophages, residues 1-87, synthetic gene; Cloned into a modified pBT7-N-His vector; also called 15N-AcrIIA4; 13C,15N-AcrIIA4; source: E. coli BL21star(DE3), purified (HisTrap, TEV cleavage, Superdex 75, MonoQ); not shown: His6, N-terminal, cleaved
B1 was tested, and the Kd [1] was 0.6 ± 0.1 nM, the dH [1] was -10.3 ± 0.1 kcal/mol and the “stoichiometry N” value [2] was 1. The Kd [3] was 4800 ± 150 nM and the dH [3] was -11.5 ± 0.7 kcal/mol.
